Biological target: biotinylated Aβ1-28 peptide
Assay: ELISA, biotinylated peptide (Anaspec) on streptavidin plate, 10 µg/ml mAb
Settings: remark: other sources report otherwise

biotinylated Aβ1-28 peptide, sequence (chain, as listed by the source): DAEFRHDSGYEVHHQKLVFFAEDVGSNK

O.D. after background subtraction (mean): 0.53 O.D.
B1: mouse monoclonal antibody ACI-11-Ab-9 (antibody, V domains shown)
VL: QAVVTQESALTTSPGGTVILTCRSSTGAVTTSNYANWVQEKPDHLFTGLIGGTSNRAPGVPVRFSGSLIGDKAALTITGAQTEDDAMYFCALWYSTHYVFGGGTKVTVL
VH: QVQLQQSDAELVKPGASVKISCKVSGYTFTDHTIHWMKQRPEQGLEWIGYIYPRDGSTKYNEKFKGKATLTADKSSSTAYMQLNSLTSEDSAVYFCARDYGYAFDYWGQGTTLTVSS
modifications: here or on the partner: biotinylated (position not given)
